Measured values from US20220387487A1, “COMPOSITIONS AND METHODS FOR TREATMENT OF CANCER” (Aleta Biotherapeutics Inc., priority 2019, published 2022).

B1: W264S: CD19 variant (protein)
chain: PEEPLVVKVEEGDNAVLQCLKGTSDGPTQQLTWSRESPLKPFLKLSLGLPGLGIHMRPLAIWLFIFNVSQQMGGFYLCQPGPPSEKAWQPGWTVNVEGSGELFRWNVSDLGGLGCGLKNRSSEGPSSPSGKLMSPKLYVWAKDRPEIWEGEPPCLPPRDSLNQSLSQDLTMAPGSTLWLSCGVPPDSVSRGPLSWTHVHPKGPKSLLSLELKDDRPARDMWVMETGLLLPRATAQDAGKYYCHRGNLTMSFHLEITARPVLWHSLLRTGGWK
B2: H243T: CD19 variant (protein)
chain: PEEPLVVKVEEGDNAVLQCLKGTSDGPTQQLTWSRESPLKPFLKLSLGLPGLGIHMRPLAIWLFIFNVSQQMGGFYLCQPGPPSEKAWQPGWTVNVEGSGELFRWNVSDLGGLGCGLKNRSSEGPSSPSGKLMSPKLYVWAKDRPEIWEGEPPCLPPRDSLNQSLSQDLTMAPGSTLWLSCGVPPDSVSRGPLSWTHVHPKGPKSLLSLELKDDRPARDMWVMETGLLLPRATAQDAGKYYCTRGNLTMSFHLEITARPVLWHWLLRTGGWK
B3: W264P: CD19 variant (protein)
chain: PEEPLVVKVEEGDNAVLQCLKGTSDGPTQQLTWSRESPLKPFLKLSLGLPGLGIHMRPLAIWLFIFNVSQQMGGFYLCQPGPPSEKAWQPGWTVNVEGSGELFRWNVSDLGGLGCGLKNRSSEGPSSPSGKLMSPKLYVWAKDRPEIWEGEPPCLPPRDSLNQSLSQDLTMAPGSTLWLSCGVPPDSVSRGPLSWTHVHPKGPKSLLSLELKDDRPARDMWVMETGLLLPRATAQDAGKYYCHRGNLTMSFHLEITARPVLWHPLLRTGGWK
B4: W262P: CD19 variant (protein)
chain: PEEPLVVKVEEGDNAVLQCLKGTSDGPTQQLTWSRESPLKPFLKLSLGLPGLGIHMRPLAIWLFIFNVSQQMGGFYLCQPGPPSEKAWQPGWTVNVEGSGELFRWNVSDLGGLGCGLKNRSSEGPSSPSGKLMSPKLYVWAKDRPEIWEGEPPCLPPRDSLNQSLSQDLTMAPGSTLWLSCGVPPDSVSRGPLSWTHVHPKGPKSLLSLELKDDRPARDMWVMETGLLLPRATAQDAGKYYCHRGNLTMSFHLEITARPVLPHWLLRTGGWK
B5: V260R: CD19 variant (protein)
chain: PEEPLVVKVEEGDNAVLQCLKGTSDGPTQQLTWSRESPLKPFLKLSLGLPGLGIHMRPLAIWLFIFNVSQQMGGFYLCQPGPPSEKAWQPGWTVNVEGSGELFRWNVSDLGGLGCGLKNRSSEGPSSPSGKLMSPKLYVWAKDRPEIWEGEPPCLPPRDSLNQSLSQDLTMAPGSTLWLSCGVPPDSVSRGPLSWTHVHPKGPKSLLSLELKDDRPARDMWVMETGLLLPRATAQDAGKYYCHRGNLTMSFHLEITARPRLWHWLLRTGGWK
B6: M223T: CD19 variant (protein)
chain: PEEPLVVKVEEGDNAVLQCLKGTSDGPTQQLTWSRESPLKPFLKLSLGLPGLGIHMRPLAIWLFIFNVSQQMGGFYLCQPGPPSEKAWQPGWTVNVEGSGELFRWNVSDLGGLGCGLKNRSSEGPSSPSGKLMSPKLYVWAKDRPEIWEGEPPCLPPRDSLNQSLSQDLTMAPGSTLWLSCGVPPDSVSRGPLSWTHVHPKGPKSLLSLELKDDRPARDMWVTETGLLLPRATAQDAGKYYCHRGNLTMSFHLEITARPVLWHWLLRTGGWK
B7: L228V: CD19 variant (protein)
chain: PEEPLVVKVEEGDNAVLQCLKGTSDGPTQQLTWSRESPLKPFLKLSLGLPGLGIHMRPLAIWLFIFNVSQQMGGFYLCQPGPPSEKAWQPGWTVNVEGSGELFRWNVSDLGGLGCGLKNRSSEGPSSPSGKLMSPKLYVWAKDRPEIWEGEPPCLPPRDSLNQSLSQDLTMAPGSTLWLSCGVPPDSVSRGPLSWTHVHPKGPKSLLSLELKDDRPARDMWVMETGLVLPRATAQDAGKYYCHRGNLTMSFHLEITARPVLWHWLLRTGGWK
B8: V260K: CD19 variant (protein)
chain: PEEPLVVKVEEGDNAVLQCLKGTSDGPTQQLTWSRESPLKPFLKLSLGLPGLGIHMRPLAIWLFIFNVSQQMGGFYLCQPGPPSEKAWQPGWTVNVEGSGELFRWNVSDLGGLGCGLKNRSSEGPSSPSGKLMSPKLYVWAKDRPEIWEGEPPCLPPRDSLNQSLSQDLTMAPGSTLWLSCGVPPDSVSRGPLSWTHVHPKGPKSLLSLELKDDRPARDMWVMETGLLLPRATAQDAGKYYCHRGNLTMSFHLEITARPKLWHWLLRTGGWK
B9: W264Q: CD19 variant (protein)
chain: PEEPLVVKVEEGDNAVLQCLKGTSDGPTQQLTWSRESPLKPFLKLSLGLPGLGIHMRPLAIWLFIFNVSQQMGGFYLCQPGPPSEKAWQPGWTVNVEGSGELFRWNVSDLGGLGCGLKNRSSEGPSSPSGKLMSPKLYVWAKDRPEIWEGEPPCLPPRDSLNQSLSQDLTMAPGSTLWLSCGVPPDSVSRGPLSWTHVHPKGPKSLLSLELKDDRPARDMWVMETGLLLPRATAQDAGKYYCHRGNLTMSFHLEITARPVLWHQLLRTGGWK
B10: W262A: CD19 variant (protein)
chain: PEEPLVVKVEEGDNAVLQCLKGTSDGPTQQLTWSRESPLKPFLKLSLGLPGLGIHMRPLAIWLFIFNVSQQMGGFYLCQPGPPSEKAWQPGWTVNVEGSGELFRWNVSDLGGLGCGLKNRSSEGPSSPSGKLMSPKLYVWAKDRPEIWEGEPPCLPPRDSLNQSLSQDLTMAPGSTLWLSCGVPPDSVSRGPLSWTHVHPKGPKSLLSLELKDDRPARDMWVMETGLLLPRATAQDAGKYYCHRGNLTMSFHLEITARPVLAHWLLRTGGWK
B11: W264R: CD19 variant (protein)
chain: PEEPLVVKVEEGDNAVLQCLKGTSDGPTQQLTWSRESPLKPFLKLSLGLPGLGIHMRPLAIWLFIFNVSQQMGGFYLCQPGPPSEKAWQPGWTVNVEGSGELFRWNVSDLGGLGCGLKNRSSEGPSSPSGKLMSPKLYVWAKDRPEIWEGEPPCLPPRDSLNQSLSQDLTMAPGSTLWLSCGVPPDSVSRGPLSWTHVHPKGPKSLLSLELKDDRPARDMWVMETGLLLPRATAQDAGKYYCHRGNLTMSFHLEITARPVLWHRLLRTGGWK
B12: W262E: CD19 variant (protein)
chain: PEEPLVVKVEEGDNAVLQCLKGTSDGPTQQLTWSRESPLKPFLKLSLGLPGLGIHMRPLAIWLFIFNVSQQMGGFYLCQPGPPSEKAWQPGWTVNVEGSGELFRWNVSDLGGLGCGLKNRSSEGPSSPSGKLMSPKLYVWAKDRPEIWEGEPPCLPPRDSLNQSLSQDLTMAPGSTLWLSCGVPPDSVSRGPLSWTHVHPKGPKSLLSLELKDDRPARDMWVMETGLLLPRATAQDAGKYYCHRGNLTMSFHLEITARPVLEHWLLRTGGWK
B13: G226T: CD19 variant (protein)
chain: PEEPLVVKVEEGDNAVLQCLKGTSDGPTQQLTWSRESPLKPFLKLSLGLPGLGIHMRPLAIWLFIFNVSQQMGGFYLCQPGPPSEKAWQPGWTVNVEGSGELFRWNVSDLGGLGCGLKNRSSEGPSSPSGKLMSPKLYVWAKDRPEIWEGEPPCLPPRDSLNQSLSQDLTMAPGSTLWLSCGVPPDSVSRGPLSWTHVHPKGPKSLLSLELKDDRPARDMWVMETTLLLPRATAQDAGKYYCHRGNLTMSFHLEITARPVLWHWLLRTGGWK
B14: W264T: CD19 variant (protein)
chain: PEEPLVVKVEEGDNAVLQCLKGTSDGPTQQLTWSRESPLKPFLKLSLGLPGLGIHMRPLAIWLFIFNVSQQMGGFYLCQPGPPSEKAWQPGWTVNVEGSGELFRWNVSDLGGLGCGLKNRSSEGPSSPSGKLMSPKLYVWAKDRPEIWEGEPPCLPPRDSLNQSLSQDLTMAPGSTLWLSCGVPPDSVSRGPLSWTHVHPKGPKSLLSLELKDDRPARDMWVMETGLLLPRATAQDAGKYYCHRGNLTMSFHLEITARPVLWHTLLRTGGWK
B15: W262S: CD19 variant (protein)
chain: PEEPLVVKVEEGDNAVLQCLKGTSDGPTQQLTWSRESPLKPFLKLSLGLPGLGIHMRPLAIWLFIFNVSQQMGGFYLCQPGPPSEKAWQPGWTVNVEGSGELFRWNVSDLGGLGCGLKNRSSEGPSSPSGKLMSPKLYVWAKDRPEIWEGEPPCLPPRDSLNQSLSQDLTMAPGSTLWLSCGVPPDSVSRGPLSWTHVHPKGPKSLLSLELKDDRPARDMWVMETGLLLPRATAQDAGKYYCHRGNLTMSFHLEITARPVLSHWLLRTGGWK
B16: W262R: CD19 variant (protein)
chain: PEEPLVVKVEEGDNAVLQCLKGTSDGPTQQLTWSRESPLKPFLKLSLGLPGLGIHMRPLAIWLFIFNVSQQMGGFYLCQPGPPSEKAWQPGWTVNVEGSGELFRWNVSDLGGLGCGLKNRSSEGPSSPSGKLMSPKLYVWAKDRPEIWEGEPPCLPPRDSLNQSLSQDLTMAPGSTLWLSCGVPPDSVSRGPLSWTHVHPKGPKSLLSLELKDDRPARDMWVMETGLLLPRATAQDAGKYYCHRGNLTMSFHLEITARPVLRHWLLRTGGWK
B17: W264G: CD19 variant (protein)
chain: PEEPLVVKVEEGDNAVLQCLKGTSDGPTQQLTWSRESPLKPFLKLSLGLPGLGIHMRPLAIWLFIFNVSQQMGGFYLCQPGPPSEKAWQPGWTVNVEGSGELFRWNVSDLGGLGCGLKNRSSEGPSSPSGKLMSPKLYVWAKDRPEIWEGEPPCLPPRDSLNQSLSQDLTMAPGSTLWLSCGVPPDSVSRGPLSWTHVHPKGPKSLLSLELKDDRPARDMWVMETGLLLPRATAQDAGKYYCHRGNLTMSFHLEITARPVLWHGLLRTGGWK
B18: W264K: CD19 variant (protein)
chain: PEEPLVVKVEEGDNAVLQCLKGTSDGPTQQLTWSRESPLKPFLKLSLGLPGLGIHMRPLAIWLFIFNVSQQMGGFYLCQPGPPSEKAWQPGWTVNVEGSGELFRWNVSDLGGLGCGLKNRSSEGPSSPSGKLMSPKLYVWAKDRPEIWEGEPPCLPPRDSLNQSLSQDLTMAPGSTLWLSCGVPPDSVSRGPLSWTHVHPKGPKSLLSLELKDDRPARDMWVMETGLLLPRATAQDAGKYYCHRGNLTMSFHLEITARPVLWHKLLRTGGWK

The molecules below were run on FMC63 (assay: CD19 variant binding to anti-CD19 antibody FMC63 (score)). Details: Table 1A, CD19 single mutants (positions of SEQ ID NO:2).
Chain of FMC63 (as listed by the source): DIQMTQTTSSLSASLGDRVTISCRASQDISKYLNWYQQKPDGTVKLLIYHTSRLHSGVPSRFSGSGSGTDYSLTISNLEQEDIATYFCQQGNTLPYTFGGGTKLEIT
Chain of FMC63 (as listed by the source): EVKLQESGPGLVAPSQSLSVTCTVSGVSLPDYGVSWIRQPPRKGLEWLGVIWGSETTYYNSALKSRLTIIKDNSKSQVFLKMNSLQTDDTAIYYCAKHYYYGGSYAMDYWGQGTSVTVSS

Question: B1 was tested. Which “FMC63 Binding Score” value did it give?
Answer: 7.6 ± .5

Question: B2 was tested. Which “FMC63 Binding Score” value did it give?
Answer: 7.1 ± .9

Question: B3 was tested. Which “FMC63 Binding Score” value did it give?
Answer: 8.6 ± 1.5

Question: With B4 as the molecule, how does the “FMC63 Binding Score” value read?
Answer: 7.4 ± .7

Question: With B5 as the molecule, how does the “FMC63 Binding Score” value read?
Answer: 6.7 ± .3

Question: Which “FMC63 Binding Score” value does the source give for B6 here?
Answer: 6.7 ± .4

Question: With B7 as the molecule, how does the “FMC63 Binding Score” value read?
Answer: 7.4 ± .4

Question: For B8, which “FMC63 Binding Score” value is on record?
Answer: 7.5 ± .7

Question: For B9, which “FMC63 Binding Score” value is on record?
Answer: 7.4 ± .8

Question: B10 was tested. Which “FMC63 Binding Score” value did it give?
Answer: 6.9 ± .5

Question: B11 was tested. Which “FMC63 Binding Score” value did it give?
Answer: 6.9 ± .3

Question: Which “FMC63 Binding Score” value does the source give for B12 here?
Answer: 6.9 ± .3

Question: With B13 as the molecule, how does the “FMC63 Binding Score” value read?
Answer: 7.3 ± .6

Question: With B14 as the molecule, how does the “FMC63 Binding Score” value read?
Answer: 7.2 ± .8

Question: Which “FMC63 Binding Score” value does the source give for B15 here?
Answer: 7. ± .3

Question: For B16, which “FMC63 Binding Score” value is on record?
Answer: 7.4 ± .3

Question: Which “FMC63 Binding Score” value does the source give for B17 here?
Answer: 7.2 ± .3

Question: B18 was tested. Which “FMC63 Binding Score” value did it give?
Answer: 8. ± 1.
